Residue numbers refer to the chain shown, from its start. Each block holds one binder with its values, some of them ahead of it. Where no end group is shown, it is not given here.
Legend:
[1] = molecular target: T1, MUC16 c114 expressed on transfected SKOV3 cells (SKOV3^c114) (human); assay: flow cytometry, PE-Texas Red axis 10^0 to 10^5, secondary antibody detection; untransfected SKOV3 Cells + DFO-hu4H11 + Sec Ab lie with their controls below about 5 x 10^2
T1 construct: also called deltaMUC16c114; c114 peptide
T1 chain: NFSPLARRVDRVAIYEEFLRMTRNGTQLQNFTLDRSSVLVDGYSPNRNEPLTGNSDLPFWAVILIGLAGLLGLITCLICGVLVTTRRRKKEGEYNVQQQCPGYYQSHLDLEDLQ

[2] = molecular target: T2, biotinylated MUC16 peptide-2 (human, also: biotinylated (position not given here)); assay: SPR, BIAcore X100, single cycle kinetics, antibody over captured biotinylated peptide-2
T2 construct: Captured on streptavidin sensor (SPR) or streptavidin magnetic beads (radioligand assays); also called biotinylated peptide-2
T2 peptide: TLDRSSVLVDGYSPNRNE
Protocol: The relative binding affinities of 4H11 humanized antibodies (H1L1, H1L2, H2L1, H2L2) were compared by surface plasmon resonance using a BIACore-X100 instrument with a Biotin CAP Chip (GE Healthcare). The assay format consisted of capturing the biotinylated MUC16 peptide-2 ([…]; SEQ ID NO: 52) onto a streptavidin coated sensor and flowing over the antibody at various concentrations using single cycle kinetics. Ligand capture was performed by flowing 0.5 μg/ml of biotinylated MUC16 peptide-2 at a rate of 5 μl per minute for 65 seconds. The 4H11 humanized antibodies were then flowed over at the various test concentrations (150 nM, 75 nM, 37.5 nM, 18.8 nM, and 9.4 nM). The assay conditions used for measuring the effects of the added antibodies were as follows: association time of 2 minutes, disassociation time of 10 min, and a flow rate of 30 μl per minute.

[3] = molecular target: T1, MUC16 c114 expressed on transfected …; assay: FACS, geometric mean PE fluorescence, SKOV3 c114 transfectant cells, mouse anti-human IgG1-Fc-PE detection; same antibody on vector control SKOV3 phrGFP about 200, secondary alone about 170
Protocol: (§1) In a separate experiment, full-length humanized 4H11 antibodies (IgG1-Fc) comprising different combinations of humanized heavy and light chain variable regions of the 4H11 antibody were assayed. An anti-human IgG1-Fc-PE antibody was employed for fluorescent staining of MUC16-positive OVCAR3 or SKOV3 transfectant cells expressing MUC16 peptides. FIGS. 10A and 10B provide data for mean PE fluorescence and percentage PE positive cells for the 4H11 H1L1, H1L2, H2L1 and H2L2 antibodies assayed.

[4] = molecular target: T1, MUC16 c114 expressed on transfected …; assay: FACS, geometric mean PE fluorescence, SKOV3 c114 transfectant cells, mouse anti-human IgG1-Fc-PE detection; same antibody on vector control SKOV3 phrGFP about 170, at the level of secondary alone (about 170)
Protocol: as §1

[5] = molecular target: T3, MUC16 peptide-2 glycopeptide (human, also: glycopeptide, glycan and its site not given here); assay: SPR, BIAcore X100, peptide-2 glycopeptide over antibody captured by anti-IgG
T3 peptide: TLDRSSVLVDGYSPNRNE
Protocol: Ligand capture was performed by flowing the humanized anti-Muc16 antibodies 18C6 H1L1, 18C6 H1L2, 18C6 H2L1, 18C6 H2L2) and the parental 18C6 mouse antibody onto the respective chips under saturating conditions. The MUC16 peptide-2 was then flowed over at the various test concentrations (150 nM, 75 nM, 37.5 nM, 18.8 nM, and 9.4 nM). The assay conditions used for measuring the effects of the glycopeptide were as follows: association time of 2 minutes, disassociation time of 10 min, and a flow rate of 30 μl per minute.

binding result [1]: binds
B1: humanized variant of 4H11 (hu4H11), DFO immunoconjugate (antibody, V domains shown)
VH: EVKLQESGGGFVKPGGSLRVSCAASGFTFSSYAMSWVRLAPEMRLEWVATISSAGGYIFYSDSVQGRFTISRDNAKNSLHLQMGSLRSGDTAMYYCARQGFGNYGDYYAMDYWGQGTTVTVSS
VL: DIELTQSPSSLAVSAGERVTMNCKSSQSLLNSRTRKNQLAWYQQKPGQSPELLIYWASTRQSGVPDRFSGSGSGTDFTLTISSVQAEDVAVYYCQQSYNLLTFGPGTKLEIKR
modifications: p-SCN-Bn-DFO on lysine epsilon-amines, ~1 DFO conjugated per antibody; 89Zr-labelled where named [^89Zr]Zr-DFO-hu4H11
notes: both entries are variable regions (H1 and L1); Full-length antibody; also called DFO-hu4H11; [^89Zr]Zr-DFO-hu4H11

Kd [2]: 1.57 nM | koff [2]: 0.000146 s⁻¹ | kon [2]: 92700 M⁻¹ s⁻¹
B2: 4H11-H1L1 hIgG (antibody)
heavy: not shown
light: DIELTQSPSSLAVSAGERVTMNCKSSQSLLNSRTRKNQLAWYQQKPGQSPELLIYWASTRQSGVPDRFSGSGSGTDFTLTISSVQAEDVAVYYCQQSYNLLTFGPGTKLEIKRTVAAPSVFIFPPSDEQLKSGTASVVCLLNNFYPREAKVQWKVDNALQSGNSQESVTEQDSKDSTYSLSSTLTLSKADYEKHKVYACEVTHQGLSSPVTKSFNRGEC
notes: also called humanized 4H11 H1L1

Kd [2]: 2.19 nM | koff [2]: 0.000198 s⁻¹ | kon [2]: 90400 M⁻¹ s⁻¹
B3: 4H11-H1L2 hIgG (antibody)
heavy: not shown
light: B2 light with E3V, S9D, A15L, P105Q
notes: also called H1L2 humanized 4H11 antibody

Kd [2]: 1.33 nM | koff [2]: 0.000101 s⁻¹ | kon [2]: 76100 M⁻¹ s⁻¹ | binding result [3]: binds
B4: 4H11-H2L1 hIgG (antibody)
heavy: not shown
light: B2 light

binding result [4]: binds | Kd [2]: 2.37 nM | koff [2]: 0.000175 s⁻¹ | kon [2]: 73800 M⁻¹ s⁻¹
B5: 4H11-H2L2 hIgG (antibody)
heavy: not shown
light: B2 light with E3V, S9D, A15L, P105Q

Kd [5]: 6.7 nM | koff [5]: 0.0019 s⁻¹ | kon [5]: 287000 M⁻¹ s⁻¹
B6: 18C6 H1L1 humanized antibody (antibody, human IgG1, kappa, V domains shown)
VH: QVTLKESGPGILQPTQTLTLTCTFSGFSLSTVGMGVGWSRQPSGKGLEWLAHIWWDDEDKYYNPALKSRLTITKDTSKNQVFLKITNVDTADTATYYCTRIGTAQATDALDYWGQGTLVTVSS
VL: DIVMTQSAPSVPVTPGESVSISCRSSKSLLHSNGNTYLYWFLQKPGQSPQRLIYYMSNLASGVPDRFSGRGSGTDFTLKISRVEAEDVGVYYCMQSLEYPLTFGGGTKLEIKR
notes: also called H1L1 humanized 18C6 antibody

Kd [5]: 9.9 nM | koff [5]: 0.0054 s⁻¹ | kon [5]: 549000 M⁻¹ s⁻¹
B7: 18C6 H2L1 humanized antibody (antibody, human IgG1, kappa, V domains shown)
VH: B6 VH with G10T, I11L, L12V, Q13K, F82V, K84T, T90P, A91V
VL: B6 VL

Kd [5]: 8.7 nM | koff [5]: 0.0025 s⁻¹ | kon [5]: 287000 M⁻¹ s⁻¹
B8: 18C6 H1L2 humanized antibody (antibody, human IgG1, kappa, V domains shown)
VH: B6 VH
VL: B6 VL with P9L, V11L, S18P, R70S

Kd [5]: 9.2 nM | koff [5]: 0.004 s⁻¹ | kon [5]: 433000 M⁻¹ s⁻¹
B9: 18C6 H2L2 humanized antibody (antibody, human IgG1, kappa, V domains shown)
VH: B6 VH with G10T, I11L, L12V, Q13K, F82V, K84T, T90P, A91V
VL: B6 VL with P9L, V11L, S18P, R70S
